Experiment: soluble on expression in E. coli; label from the status in PepcDB or PDB records
In the case of “MGSDKIHHHHHHMIIDTSCYPTNLVDLAWRHDGEPFSGERLIQMMDGPFTINGKPRRIDKAFIQPPQGNTIYTWTDGEKSGSESIDAYMAYTVEMVKKYPDRFIGCFVYNPRCGVQNGVNAIEHYVKTLGFKMVQFQANMHAYRPDRALDWLRPALQKCAELGVLVKLHTGDGPYSIPTEWVPMMKEFPTVNFIMAHFGVQTGGVYCFEPFQMAMDMPNVYCESGWCLQSRIVEFAKVLPKHKILFGSDTPPNEPGMWLRLLEVLCFEPPQGLNLDEDTLEDYLGNNVARMIGLEPTPVPRTLEEARARLAA”, the “soluble on expression in E. coli” value is reported as “not soluble”. For “MSSETRRKILEAARKAFSKYGYDGVSMEEIAREAGVKKALIYYYFPSKDKLFEEVWREALEELESHLFAVTEETNSYFAKIKKFLKSYVDFVLNKTVLNEIIEKEKSTVRFEEEKWSKLRERYESFIKRVEELIEEGKKQNYVYKDLDSRAAAELIVNSFGDVPKDKRLLQNIQEMILRGLLNVKTEEGR”, the “soluble on expression in E. coli” value was “not soluble”. For “MALRDLSSSLSSSSSPELHVLAVDDSFVDRKVIERLLKISACKVTTVESGTRALQYLGLDGDNGSSGLKDLKVNLIVTDYSMPGLTGYELLKKIKESSALREIPVVIMSSENIQPRIEQCMIEGAEEFLLKPVKLADVKRLKELIMRGGEAEEGKTKKLSPKRILQNDIDSSPSSSSTSSSSSSHDVSSLDDDTPSSKRIKLESRG”, the “soluble on expression in E. coli” value was “not soluble”. In the case of “MAAQIPIVAATSTPAVARNSKKRPASPSHNSSGGGYGASKKKKLSASGFAQGVSIEAMNESKMASSELSSGPVEKAAKPLPFKDPNFVHSGHGGAVAGKKNRTWKNLKQILAAERALPWQLNDPNYFSIDAPPSFKPAKKYSDISGLLANYTDPQSKLRFSTVEEFSYIRRLPSDVVTGYLALRKATSIVP”, the “soluble on expression in E. coli” value is reported as “not soluble”. With “MGSDKIHHHHHHMAHAHQKSDPHTVDFQVDPVVLELGQRFVDAGYELSLVGGPVRDLFLGRRSPDLDFTTDATPDQTLALIRKWADNFWEIGKAFGTIGMRKSGFQIEITTYRAEAYDPESRKPMVAFGSSLTDDLLRRDFTINAMALRLPSMELIDPFGGVRDLHASVLATPGAPETSFSDDPLRMMRAARFAAQLGVAVRGDVKHAMSQMAERISIISAERVREELVKLICGAHPRVGIDLLVDTGLAEFVLPEVSALRLEADEHHRHKDVYQHSLQVLEQAASLETDSDGAVPGPDFVLRFAALMHDVGKPATRRFEPGGAVSFRHHDMVGSKLTKKRMKALRFDNDTIKAVARLVELHMRFYGYGEAGWSDSAVRRYVTDAGPLLERLHRLTRSDVTTRNQRKADRLSFAYDDLEARIAALREQESLEAVRPDLDGGQIMALLGLKPGPVVGKAYKFLLEQRMEHGPLDPVVAEARLREWWADQPEAAEHQPAAGVELSTTEES” the “soluble on expression in E. coli” value was “not soluble”. With “MGSDKIHHHHHHMTIATDSLKLITTVEQLKYYLIQAMKIEHATIPPYMTALYSIKPGKNLEAFHIIREVAVEEMLHLTLVANVYNAVGGSFASPVLTAPNFIPTYPSYLPTGSTDFKVGLTKFSKKTIETFRKIERSKDVEEGDPLVESRSLQEYLLEVVGCDPTKTFYSIGLFYAEIIRGLNALYKEKGPDLFCGDPRRQITPEYYYNGGGDIIPVTDLRSAMRALKVIQEQGEGSRSGTIYDAERELAHDYRFQQILLEKYYVIDKDDPTKSDQPNEPTGKSFNVDWNEVYPIKDNAKLSDYPEGSEVRTAALAFHSAYSEFLAKIEYAFDGHPEQLVPAVGGMFRLKEQANSLMRNPIPGNPGVNAAPIFKLDKR” the “soluble on expression in E. coli” value was “not soluble”. In the case of “SPSKVQELSVYEINELDRHSPKILKNAFSLMFGLGDLVPFTNKLYTGDLKKRVGITAGLCVVIEHVPEKKGERFEATYSFYFGDYGHLSVQGPYLTYEDSFLAITGGAGIFEGAYGQVKLQQLVYPTKLFYTFYLKGLANDLPLELTGTPVPPSKDIEPAPEAKALEPSGVISNYTN”, the “soluble on expression in E. coli” value is reported as “not soluble”. In the case of “MGSDKIHHHHHHMSTVAFHTLGCKVNHYETEAIWQLFKEANYERVDFEANADVFVINTCTVTNTGDKKSRQIIRRAIRQNPDAVICVTGCYAQTSSAEIMEIPGVDVVVGTQDRHKLLGYIDEFRKERQPINGVGNIMKNRKYEELDVPYFTDRTRASLKIQEGCNNFCTFCIIPWARGLMRSRDPEKVVEQATQLVNSGYKEIVLTGIHTGGYGQDLKDYNLAQLLRDLETINGLERIRISSIEASQLTDEVIDVLERSTKVVRHLHIPLQSGSDTVLKRMRRKYTMDRFSERLTKLHKALPDLAVTSDVIVGFPGETEAEFQETYDFIVKHKFSELHVFPYSPRIGTPAARMDDQIDEEIKNERVHKLITLSNQLGKLYASKFDQDVLEVIPEEQGDTEGTLVGYADNYMKVQFEGDESLIGQIVKVKITQANYPLNEGQAIKVVDFATNKSDREVLV”, the “soluble on expression in E. coli” value is reported as “not soluble”. With “MSLAKLNMNNEIKKVEQRLEKAIKSKDSVLEQASLHLLSSGGKRVRPAFVILSSQFGKDEQTSEQTYQVAVALELIHMATLVHDDVIDKSDKRRGKLTISKKWDQTTAILTGNFLLALGLEHLMAVKDNRVHQLISESIVDVCRGELFQFQDQFNSQQTIINYLRRINRKTALLIQISTEVGAITSQSDKETVRKLKMIGHYIGMSFQIIDDVLDFTSTEKKLGKPVGSDLLNGHITLPILLEMRKNPDFKLKIEQLRRDSERKEFEECIQIIRKSDSIDEAKAVSSKYLSKALNLISELPDGHPKSLLLSLTKKMGSRNTEGHHHHHH” the “soluble on expression in E. coli” value was “soluble”. In the case of “MSRCKRCLLPHSAPGAAVDSSGICAFCRSYVPNDKNLSDQLHQQRQLDLEKALADCRGKGPYDVLVCLSGGKDSLYLLYRLKVEYKLNVLAFTTDVNIPDIAWNNIHRTIQKLDIDHLVYRPSAQFYRKLFRYLLMNQEERGAVYTVSYVYAPLFEGDALQVAMEKGIPLVLAGYSPGQPEPERMEFEFSRKLITETDWTPPGLRQSGEFTEEELARFWNPKRFPADTRFPRYLAPFHAWDYDQEAMIRKVHDLELVKRRAHGNPIYSNYPINWLLMYSDLKHFGYNPYAPEFSALIRAGKASRAYWWFMTPIVNFIIRNKLLIGRNTVDQLQQLGLQEDDLKITRPRGAYDPEID”, the “soluble on expression in E. coli” value is reported as “not soluble”. For “MASIMYTPKDIFEQEFKSSMRGYDKKEVDEFLDDIIKDYETYISTIEELRQENTRLKEEVKQAKKRQEAAQTTVSPAASVSSSRVATTATNFDILKRISRLEKEVFGKQITE”, the “soluble on expression in E. coli” value was “not soluble”. In the case of “MRNPENVLNSLSKHSGNLNYKFERLYRVLFNEEMFYVAYQNIYSKTGNMTAGADGKTIDGMSIDRVEQLIGSLKNETYQPNPSKRTYIPKKNGKKRPLGIPSFDDKLVQEVVRMILEAIYEGSFEHTSHGFRPKRSCHTALIDIQKTFTAVKWFIEGDIKGFFDNINHDVLINILRERIADERFLRLIRKFLNAGYVEDWVFHRTYSGTPQGGIISPILANIYLDKFDKYIKEYINRFNKGVTRKGDARYKLYEQRRYRLAKKLKNEKDVKVRKQMTAEIKRLREERNNYPARNEMDSSIKRLKYVRYADDFLIGITGNLEDCKTVKEDIKNYLNEALKLELSDEKTLITNAQKPAKFLGYDVFIRRCNDLRKDKYGKTVRAFGHKPVLYLNFETMRKKLFDYKAARIAVVNGKEVWKSIVRTYMLNLDDLEIVSQFNAEIRGFYNYYSIANNSYVINSFYHIMSYSMYKVFANKYKSSVKKILLKYKKNKVFQVAYENSKGKTLYQSFYHDGFKRKKVAGNIYCDTIPRTVSITGGRNSLMERLKLQVCELCGATDKLEMHHVRKLKDLKGKSDWEKKMIARRRKTLAVCSKCHAKIDPDRRIRLNLEHHHHHH”, the “soluble on expression in E. coli” value is reported as “soluble”. For “MAWGQIAVVSPLVNIPVNTIEQSLLRQLPGCWGCKDKDSVFRYVNQEYAELLGHASPEECIGKTDFEMSSPTTECAQEFQRQDKHVIETGESLKILDIHPYPDGRWRAHIFTKTPWRDEQGNTLGTIFYGRELTDTAVIEVGYWVCRAIGTDMNHQSIFRFSNLNPKPEKLTCREQETLFLLLYGKKPQFISQVMGISTKTVEGHVARLRNKFEANSKNELIDKAMEAGYGSVVPKTLLKHQLSVVLNGER”, the “soluble on expression in E. coli” value was “not soluble”. In the case of “MWFKNLTLYRFNKPFSIETEALETALADFTFSPCGSQDVSKFGFSNALGKKGSTLVHSANNRHLICVTKEEKILPAQVIKESLEEKVAQIEDEENRKLAKKEKDALKDEIITSLLPRAFSRRSQTRALILPELEMILVDSSSATKAEELLALLRKALGSLPVIPLSFKAPIESQLTEWLKNGSAPLPFEMQDEAELKSAADEGGIVRFKQQDLKEDEVLAHLETGKEVHKLALHFGQSIALLLQSDASVKRLKFSEEFRAGNDELGNEDPMARLDADFALMGSELVALMHALVSALGGIEETQA”, the “soluble on expression in E. coli” value is reported as “soluble”. With “MAHHHHHHMETTAEEISAMLNENEHALIGELQGKYDFINFNEMKNYKEKKLHHELTLEVQKFINNKNVQVKDKFRLFYTLLSPLMSKLKKTIYAELLYIVTANFDANWTISYLKESEKNLENDKDAIIIYRCILILKYIELGDFKSCENEIENTKNLLQGVIGLNVVAHKFYNFAIMKYYNVLNKSDLFVKYALLYLAYTPLNDLDEADKIEIGTHICMHSIISEDVYNIGEIIQLPLINVCLKNNEQTNWLYQLIYIYNEGNIEVFNQVVHKYEENIKNSLLKDYKKNMIKKITLLALMDLAFKKKKQRSDISFEEIAQHCKVDVNEVEKMLITAKSKNILTCQIDEIQKSVKITWVKPRVLNNEKIFFMKESIDKWITHSKNLLTYMEDLSVELLIS” the “soluble on expression in E. coli” value was “not soluble”. In the case of “MTMSELGSLFEAGYHDILQLLAGQGKSPSGPPFARYFGMSAGTFEVEFGFPVEGGVEGSGRVVTGLTPSGKAASSLYIGPYGEIEAVYDALMKWVDDNGFDLSGEAYEIYLDNPAETAPDQLRTRVSLEHHHHHH”, the “soluble on expression in E. coli” value is reported as “not soluble”. With “MPRLDLCAKRTTDQCTSRVRLATRKGLTKLLLCSRESSIFKDEDIEQDDLRSSRTPWAALPPPPIKPIADSFRCDALVIGAGITGALVAERLTRQGRQVVIIDRELPSLGSTVASTAMLLWETDRPLFELAQLYNFEKAVRCYRASHHAARGLLALVTDHGIACQMRPRLSLYLAVDDSPKLVRNEYALRSRADLPTLFLDRVELLNRFGIARAGALLSRDAADADPVRLTRGLLDVSLQRGARLLKANAVAYDSAASTVTVGLENGLSIEARHVVLATGYVMPNIVGSTSNQPASSWAIATRRRPNALWPEQALIWEATRNYHYARTTPDGRVIFGGEDDDAIIDPEARAAATPAKVRALKERLKALWPRASTEVAFTWSGAFDTTRDGLPLIGAVPGYRNILAAFGYGGNGITFSFLAAELLGTLLSGGSSPLLDVLALDRDLPANDAPSDSQALEHHHHHH” the “soluble on expression in E. coli” value was “soluble”. In the case of “KDRSIIAMGAWLEVLSEEKDGNRLARHHEHGKIWKKPTRHEDIADFFPFGNPIHNNTMIMRRSVIDGGLRYNTERDWAEDYQFWYDVSKLGRLAYYPEALVKYRLHANQVSSKYSIRQHEIAQGIQKTARNDFLQSMGFKTRFDSLEYRQIKAVAYELLEKHLPEEDFERARRFLYQCFKRTDTLPAGAWLDFAADGRMRRLFTLRQYFGILHRLLKNR”, the “soluble on expression in E. coli” value is reported as “not soluble”. With “MERRSVQKKELLSTPVVPIDIKAFDAGPILEAMGKTAFQARNLHRAAEIYLRMLEDDCAVILTLAGSLVSAGQGLIVHDLIRKGLVDVIVATGANIVDQDFFEALGHRHYQGDPRADDEALRRLWIDRIYDTYIDEEELRHTDYTVAEIADGLEPRPYSSREFIWQMGRYLAERGLGEKRIVRRAYEKGVPIFVTAFSDSSAGFGLVYHQVKRPEAHVTIDSVADFRELTEIKLKAGTTGLVMLGGGVPKNFAQDIVVAAEVLGHRVEMHKYAIQITVADERDGGLSGSTLSEAQSWGKVDARLSQMVFAEATLAFPLLASYVWHRAPARAKRRYAELFREKAPA” the “soluble on expression in E. coli” value was “soluble”.
